Test results published in IntAct's records for PubMed 19229295.

B1: Bone morphogenetic protein receptor type-1B (Homo sapiens), O00238 (parent)
chain: MLLRSAGKLNVGTKKEDGESTAPTPRPKVLRCKCHHHCPEDSVNNICSTDGYCFTMIEEDDSGLPVVTSGCLGLEGSDFQCRDTPIPHQRRSIECCTERNECNKDLHPTLPPLKNRDFVDGPIHHRALLISVTVCSLLLVLIILFCYFRYKRQETRPRYSIGLEQDETYIPPGESLRDLIEQSQSSGSGSGLPLLVQRTIAKQIQMVKQIGKGRYGEVWMGKWRGEKVAVKVFFTTEEASWFRETEIYQTVLMRHENILGFIAADIKGTGSWTQLYLITDYHENGSLYDYLKSTTLDAKSMLKLAYSSVSGLCHLHTEIFSTQGKPAIAHRDLKSKNILVKKNGTCCIADLGLAVKFISDTNEVDIPPNTRVGTKRYMPPEVLDESLNRNHFQSYIMADMYSFGLILWEVARRCVSGGIVEEYQLPYHDLVPSDPSYEDMREIVCIKKLRPSFPNRWSSDECLRQMGKLMTECWAHNPASRLTALRVKKTLAKMSESQDIKL
partner: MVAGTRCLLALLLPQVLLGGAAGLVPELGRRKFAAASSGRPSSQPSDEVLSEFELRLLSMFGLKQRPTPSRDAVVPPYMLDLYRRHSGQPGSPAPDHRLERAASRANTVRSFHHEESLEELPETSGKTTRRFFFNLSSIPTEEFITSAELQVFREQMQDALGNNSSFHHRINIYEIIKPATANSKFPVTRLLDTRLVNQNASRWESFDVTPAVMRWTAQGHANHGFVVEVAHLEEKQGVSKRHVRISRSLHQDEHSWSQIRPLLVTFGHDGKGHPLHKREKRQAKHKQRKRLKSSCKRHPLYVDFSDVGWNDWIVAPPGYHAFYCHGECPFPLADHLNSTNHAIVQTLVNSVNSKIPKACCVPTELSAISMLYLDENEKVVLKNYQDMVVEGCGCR

Variants of: B1
Conditions: with bmp2_human BMP2, P12643

| effect of a mutation on the interaction | Variant |
| --- | --- |
| decreasing interaction | MLLRSAGKLNVGTKKEDGESTAPTPRPKVLRCKCSHHCPEDSVNNICSTDGYCFTMIEEDDSGLPVVTSGCLGLEGSDFQCRDTPIPHQRRSIECCTERNECNKDLHPTLPPLKNRDFVDGPIHHRALLISVTVCSLLLVLIILFCYFRYKRQETRPRYSIGLEQDETYIPPGESLRDLIEQSQSSGSGSGLPLLVQRTIAKQIQMVKQIGKGRYGEVWMGKWRGEKVAVKVFFTTEEASWFRETEIYQTVLMRHENILGFIAADIKGTGSWTQLYLITDYHENGSLYDYLKSTTLDAKSMLKLAYSSVSGLCHLHTEIFSTQGKPAIAHRDLKSKNILVKKNGTCCIADLGLAVKFISDTNEVDIPPNTRVGTKRYMPPEVLDESLNRNHFQSYIMADMYSFGLILWEVARRCVSGGIVEEYQLPYHDLVPSDPSYEDMREIVCIKKLRPSFPNRWSSDECLRQMGKLMTECWAHNPASRLTALRVKKTLAKMSESQDIKL [H35S] |
| decreasing interaction | MLLRSAGKLNVGTKKEDGESTAPTPRPKVLRCKCHGHCPEDSVNNICSTDGYCFTMIEEDDSGLPVVTSGCLGLEGSDFQCRDTPIPHQRRSIECCTERNECNKDLHPTLPPLKNRDFVDGPIHHRALLISVTVCSLLLVLIILFCYFRYKRQETRPRYSIGLEQDETYIPPGESLRDLIEQSQSSGSGSGLPLLVQRTIAKQIQMVKQIGKGRYGEVWMGKWRGEKVAVKVFFTTEEASWFRETEIYQTVLMRHENILGFIAADIKGTGSWTQLYLITDYHENGSLYDYLKSTTLDAKSMLKLAYSSVSGLCHLHTEIFSTQGKPAIAHRDLKSKNILVKKNGTCCIADLGLAVKFISDTNEVDIPPNTRVGTKRYMPPEVLDESLNRNHFQSYIMADMYSFGLILWEVARRCVSGGIVEEYQLPYHDLVPSDPSYEDMREIVCIKKLRPSFPNRWSSDECLRQMGKLMTECWAHNPASRLTALRVKKTLAKMSESQDIKL [H36G] |

Variants of: B1
Conditions: with bmp2_human BMP2, P12643
Remark: another data set of the same source

| effect of a mutation on the interaction | Variant |
| --- | --- |
| decreasing interaction | MLLRSAGKLNVGTKKEDGESTAPTPRPKVLRCKCHHHCPEDSVNNICSTDGYCFTMIEEDDSGLPVVTSGCLGLEGSDFACRDTPIPHQRRSIECCTERNECNKDLHPTLPPLKNRDFVDGPIHHRALLISVTVCSLLLVLIILFCYFRYKRQETRPRYSIGLEQDETYIPPGESLRDLIEQSQSSGSGSGLPLLVQRTIAKQIQMVKQIGKGRYGEVWMGKWRGEKVAVKVFFTTEEASWFRETEIYQTVLMRHENILGFIAADIKGTGSWTQLYLITDYHENGSLYDYLKSTTLDAKSMLKLAYSSVSGLCHLHTEIFSTQGKPAIAHRDLKSKNILVKKNGTCCIADLGLAVKFISDTNEVDIPPNTRVGTKRYMPPEVLDESLNRNHFQSYIMADMYSFGLILWEVARRCVSGGIVEEYQLPYHDLVPSDPSYEDMREIVCIKKLRPSFPNRWSSDECLRQMGKLMTECWAHNPASRLTALRVKKTLAKMSESQDIKL [Q80A] |
